Results: patent US20210324108A1

Target: human 4-1BB on Jurkat-hu4-1BB-NFκB-luc2 reporter cells (human) (UniProt Q07011)
Test: cell-based or functional assay

Chain of human 4-1BB on Jurkat-hu4-1BB-NFκB-luc2 reporter cells (human) (Q07011 24-255 limits assumed): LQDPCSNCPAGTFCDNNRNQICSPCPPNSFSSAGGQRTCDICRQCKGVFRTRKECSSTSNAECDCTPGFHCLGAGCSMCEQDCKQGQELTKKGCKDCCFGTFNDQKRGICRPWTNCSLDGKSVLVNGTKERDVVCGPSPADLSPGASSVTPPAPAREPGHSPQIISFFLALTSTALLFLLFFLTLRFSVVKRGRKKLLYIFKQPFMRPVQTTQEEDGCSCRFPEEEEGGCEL

An EC50 of NFκB-luciferase activation in Jurkat-hu4-1BB-NFκB-luc2 cells with NIH/3T3-huFAP clone 19 of 0.02 nM and an area under the curve (AUC) of NFκB-luciferase activation in Jurkat-hu4-1BB-NFκB-luc2 cells with NIH/3T3-huFAP clone 19 of 53500 were found for “2+1 bispecific agonistic anti-4-1BB (20H4.9) x anti-FAP (4B9) huIgG1 P329GLALA antibody (bispecific antibody)” in this work.
